Substitutions are numbered along the chain they refer to. Where two headings read alike, the source gives them in different places.
T1: human EpCAM (purified recombinant antigen, Acro Biosystems Cat #EPM-H5223) (human, UniProt P16422 24-265)
T1 construct: Bought recombinant protein
T1 sequence: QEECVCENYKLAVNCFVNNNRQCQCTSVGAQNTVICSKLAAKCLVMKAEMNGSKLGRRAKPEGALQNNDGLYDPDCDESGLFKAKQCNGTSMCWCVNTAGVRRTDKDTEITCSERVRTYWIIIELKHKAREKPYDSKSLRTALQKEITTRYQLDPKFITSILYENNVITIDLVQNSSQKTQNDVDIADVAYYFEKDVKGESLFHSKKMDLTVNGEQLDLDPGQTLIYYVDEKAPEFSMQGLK

T2: human TROP2 (purified recombinant antigen, Acro Biosystems Cat #TR2-H5223) (human, UniProt P09758 27-274)
T2 construct: Bought recombinant protein; also called huTROP2
T2 sequence: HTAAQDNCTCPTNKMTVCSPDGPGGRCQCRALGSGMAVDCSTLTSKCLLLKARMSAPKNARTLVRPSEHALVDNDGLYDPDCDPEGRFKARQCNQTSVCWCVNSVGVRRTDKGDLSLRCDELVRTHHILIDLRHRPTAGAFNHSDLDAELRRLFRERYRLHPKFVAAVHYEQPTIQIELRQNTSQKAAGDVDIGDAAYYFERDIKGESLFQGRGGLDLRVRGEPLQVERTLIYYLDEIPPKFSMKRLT

T3: cynomolgus/rhesus TROP2 (purified recombinant antigen, Acro Biosystems Cat #TR2-R52H3) (cynomolgus/rhesus, UniProt P09758 27-274 (human entry))
T3 construct: Bought recombinant protein; also called cyTROP2; cyno/rhesus TROP2
T3 chain: T2 sequence with M36V, S67N, I204V

T4: mouse Trop2 on ExpiCHO cells overexpressing mouse Trop2 (mouse, UniProt Q8BGV3 25-317)
T4 construct: Cell-surface form
T4 sequence: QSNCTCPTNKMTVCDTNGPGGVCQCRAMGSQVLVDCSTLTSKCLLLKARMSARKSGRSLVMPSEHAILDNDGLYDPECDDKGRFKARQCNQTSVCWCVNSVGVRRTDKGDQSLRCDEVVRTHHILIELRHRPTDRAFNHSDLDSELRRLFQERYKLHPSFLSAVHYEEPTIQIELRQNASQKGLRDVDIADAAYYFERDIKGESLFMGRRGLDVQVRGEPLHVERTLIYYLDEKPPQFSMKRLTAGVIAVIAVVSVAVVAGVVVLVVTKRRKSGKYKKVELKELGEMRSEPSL

T5: human Trop2 on cells (FaDu cells, endogenous; ExpiCHO cells overexpressing human Trop2) (human, UniProt P09758 27-323)
T5 construct: Cell-surface form
T5 sequence: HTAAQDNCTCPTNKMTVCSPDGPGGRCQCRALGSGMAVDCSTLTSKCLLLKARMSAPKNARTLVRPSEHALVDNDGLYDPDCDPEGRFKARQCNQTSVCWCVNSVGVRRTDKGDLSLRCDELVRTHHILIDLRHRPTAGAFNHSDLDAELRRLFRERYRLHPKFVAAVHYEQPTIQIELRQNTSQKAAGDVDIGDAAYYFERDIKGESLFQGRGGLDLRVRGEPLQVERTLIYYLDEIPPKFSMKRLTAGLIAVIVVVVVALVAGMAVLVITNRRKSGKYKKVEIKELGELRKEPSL

T6: mouse TROP2 (purified recombinant antigen, Acro Biosystems Cat #TR2-M52H6) (mouse, UniProt Q8BGV3 25-270)
T6 construct: Bought recombinant protein; also called msTROP2
T6 sequence: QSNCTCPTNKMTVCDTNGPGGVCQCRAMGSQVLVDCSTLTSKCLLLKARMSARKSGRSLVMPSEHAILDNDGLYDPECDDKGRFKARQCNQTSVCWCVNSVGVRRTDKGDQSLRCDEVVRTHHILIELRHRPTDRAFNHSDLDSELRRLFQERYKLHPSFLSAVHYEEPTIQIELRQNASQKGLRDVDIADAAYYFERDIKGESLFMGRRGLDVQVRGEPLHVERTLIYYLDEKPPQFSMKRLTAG

B1: Gen 1 (antibody, V domains shown)
VH: EVQLVESGGGLVQPGGSLRLSCAASGFTFNTYAMNWVRQAPGKGLEWVGRIRSKYNNYATYYADSVKGRFTISRDDSKNTLYLQMNSLRAEDTAVYYCVRHGNFGNSYVSWFAYWGQGTLVTVSS
VL: DIQMTQSPSSLSASVGDRVTITCRSSTGAVTTSNYANWVQQKPGKAPKGLIGGTNKRAPGVPARFSGSGSGTDFTLTISSLQPEDFATYYCALWYSNLWVFGQGTKVEIK
notes: also called CD3 Gen 1; Gen1 CD3
B2: SD-071877 (antibody, V domains shown)
VH: AVTLDESGGGLQTPGGALSLVCKASGFDFSGYGMGWVRQAPGKGLEWVAGITNDGRYIGHGSAVKGRATISRDNGQSTVRLQLNNLRAEDTGTYFCTKCAYRSGCDYEAGSIDAWGHGTEVIVSS
VL: ALALTQPSSVSANLGGTVKITCSGDNNWYGWYQQKSPGSAPVTVIYYDDKRPSDIPSRFSGSRSGSTGTLTITGVQAEDEAVYFCGNRDSSAGYVGIFGAGTTLTVL
notes: Chicken/human chimera
B3: SD-175533 (antibody, V domains shown)
VH: QIQLQESGPGLMKPSQSLSLTCTVTGYSITSDYAWNWIRQFPGNKLEWMGHITYSGSTSYNPSLKSRISISRDTSKNQFFLQLNSVTTGDTATYYCARGGSTLISGDFDYWGQGTTLTVSS
VL: DIVLTQSHKFMSTSVGDRVSITCKASQDVSTAVAWYQQKPGQSPKLLIYSASYRYTGVPDRFTGSGSGTDFTFTISSVQAEDLAVYYCQQHYSTPLTFGAGTKLELK
notes: Mouse/human chimera
B4: SD-025096 (antibody, V domains shown)
VH: QVQLQQSGAELVRPGASVKLSCKASGYTFTSYWINWVKQRPGQGLEWIGNIFPSGSYTNYNQKFKDRATLTVDKSSSTAFMQLSSPTSEDSAIYFCTRGSGFDYWGQGTTLTVSS
VL: DIVLTQSPATLSVTPGDSVSLSCRASQSISNNLHWYQQKSHESPRLLIKYASQSISGIPSRFSGSGSGTDFTLSINSVETEDFGMYFCQQSNSWPFTFGSGTKLEIK
notes: Mouse/human chimera; also called Human IgG1 SD-025096

Experiments:
[1] = molecular target: T7, recombinant CD3ϵδ-HRP heterodimer (Acro Biosystems CDD-HR2W3) (Homo sapiens (Human), UniProt P07766 23-126; P04234 22-105, Conjugated to horseradish peroxidase (HRP). The site and chemistry are not stated and the letters do not carry it.); test: direct ELISA: antibody coated at 5 ug/mL, CD3ϵδ-HRP titrated (the axis is the CD3ϵδ-HRP concentration), absorbance at 450 nm
T7 construct: Bought HRP conjugate; also called CD3ϵδ heterodimer; not shown: The HRP conjugate and any vendor tags or fusion partners on the two chains (Acro Biosystems CDD-HR2W3); copies: 1 + 1

[2] = molecular target: T1, human EpCAM (purified recombinant …); test: SPR, Carterra LSA; antibody captured on anti-human IgG, antigen injected
[3] = molecular target: T2, human TROP2 (purified recombinant …); test: SPR, Carterra LSA; antibody captured on anti-human IgG, antigen injected; 1:1 fit
[4] = molecular target: T3, cynomolgus/rhesus TROP2 (purified …); test: as above
[5] = molecular target: T2, human TROP2 (purified recombinant …); test: as above; remark: listed apart in the source
[6] = molecular target: T4, mouse Trop2 on ExpiCHO cells …; test: flow cytometry on ExpiCHO cells overexpressing mouse Trop2, percent of cells bound; histogram overlay at 66.67 nM
[7] = molecular target: T5, human Trop2 on cells (FaDu cells, …); test: flow cytometry on FaDu cells (endogenous human Trop2); average of n=1-3 experiments
[8] = molecular target: T6, mouse TROP2 (purified recombinant …); test: SPR, Carterra LSA; antibody captured on anti-human IgG, antigen injected
[9] = molecular target: T2, human TROP2 (purified recombinant …); test: MSD assay: biotinylated TROP2 on streptavidin plate, antibody titrated, anti-human SULFO-TAG detection

T7 sequence (P07766 23-126 limits assumed, stated change not applied, chain 1 of 2): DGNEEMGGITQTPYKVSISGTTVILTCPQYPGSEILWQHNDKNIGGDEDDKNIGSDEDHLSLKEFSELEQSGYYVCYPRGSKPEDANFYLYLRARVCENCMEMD
T7 sequence (P04234 22-105 limits assumed, stated change not applied, chain 2 of 2): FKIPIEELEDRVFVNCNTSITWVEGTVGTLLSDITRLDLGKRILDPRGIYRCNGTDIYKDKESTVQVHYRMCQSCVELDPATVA

Binder	EC50 (read off the curve) [1] [mg/L]	binding result [2]	Kd [3] [nM]	Kd [4] [nM]	Kd [5] [nM]	koff [5] [s⁻¹]	kon [5] [M⁻¹ s⁻¹]	binding result [6]	EC50 [7] [nM]	binding result [8]	EC50 (read off the curve) [9] [nM]
B1	~0.04	–	–	–	–	–	–	–	–	–	–
B2	–	no binding (tested: 1 µM top concentration)	0.31	4.96	0.31	0.000143	457000	no binding (tested: 66.67 nM)	1.09	–	–
B3	–	no binding (tested: 1 µM top concentration)	0.2	0.1	0.2	3.96e-05	197000	–	2.36	no binding (tested: 1 µM top concentration)	~0.3
B4	–	no binding (tested: 1 µM top concentration)	5.47	6.55	5.47	0.00165	301000	–	1.99	no binding (tested: 1 µM top concentration)	~0.2

From patent US20250019457A1 (IBIO, published 2025)
